Assay results taken from US5753621A, “Pulmonary surfactant protein fragments” (Abbott Laboratories, priority 1995, dated 1998).

Assays:
Format in all cases: physicochemical
[1] = Relative surface activity by dilution studies on the modified Wilhelmy Balance-Langmuir Trough; details: 675 ug phospholipid
Method: For the purpose of this comparison "surface activity" is defined as follows: For any given peptide concentration, the admixture is required to result in a minimum dynamic surface tension of less than 10 dynes/cm for each of seven consecutive expansion/compression cycles.
Initially each of the admixtures was formulated so as to contain an equal number of moles of the individual peptide as is contained in a 0.5 mg/mL admixture of SP-B(53-78). […] Thereafter, each of these admixtures was diluted with the standard lipid mixture as described in Example 4, so as to provide doubling dilutions of the equimolar "parent" stock peptide admixture. The lipid concentration in all cases was maintained at 25 mg/ml.
Assessment of relative surface activity was conducted on the modified Wilhemy-Langmuir Surface Balance. For these studies a standard volume of 27 ul of each admixture, corresponding to a total phospholipid mass of 675 ug, was applied to the Langmuir Trough with maximum dimensions of 445 sq. cm.

[2] = Adsorption capacity, modified Wilhelmy surface balance; details: measured after three (3) minutes spreading time; peptide 0.5 mg/ml (~2% of solids)
Method: (§1) Prior to testing for surface activity, the synthetic fragments were admixed with lipids. A lipid mixture consisting of 68% 1,2-dipalmitoyl-sn-phosphatidylcholine (DPPC), 22% egg phosphatidylglycerol (PG) and 9% palmitic acid on a weight basis was prepared by dissolving the lipids in chloroform:methanol (2:1). The required amount of peptide fragment was dissolved in methanol and heated to 60° C. for 10 minutes. The peptide solution was then added to the lipid mixture prewarmed to 45° C. for ten minutes. The samples were mixed at 45° C. by gentle swirling at 100 revolutions per minute on a Buchi rotary evaporator. The organic solvents were then evaporated at 45° C. by increasing the vacuum in 100 torr increments every five minutes until most of the solvent was removed. Final vacuum was between 150-200 torr. Following evaporation, the solids were then suspended in 10% ethanol prewarmed to 45° C. and which was prepared using deionized distilled water. The suspension was gently mixed with vortexing and placed back under vacuum at 600 torr with a repeat of the vacuum ramping process. Final vacuum for the ethanol removal was 50 torr. Following complete removal of ethanol the suspension was diluted with aqueous 0.15M NaCl at 45° C. to yield an admixture with a phospholipid concentration of 25 mg/ml. The peptide/lipid admixtures were formed at final peptide concentrations of 0.5 mg/ml (equivalent to 2% of solids concentration).
A procedure similar to that described by Notter, et al., Pediatric Res. 16, 515-519 (1982) was employed to determine the absorption rate in the absence of diffusion resistance. The modified Wilhelmy surface balance as described above was used. However, instead of using a Langmuir trough, a round Teflon dish (5.1 cm diameter) was employed. The subphase, 70 ml of 0.15M NaCl, was allowed to equilibrate to 37° C. in the incubator and was continuously stirred with a Teflon coated magnetic stirrer. An aliquot of the peptide/lipid fragment admixture containing 5 mg of total phospholipid was dispersed in 10 ml of 0.15M NaCl by vortexing for 10 seconds. This dispersion was then added to the saline subphase. Surface tension lowering was monitored using a strip chart recorder connected to the electro-balance output.

[3] = Pulsating Bubble Surfactometer (PBS) surface tension; details: after 5 minutes pulsation (100 cycles); 1 mg/ml phospholipid, peptide 2% of phospholipids; 0.15M NaCl; 37° C.; 20 cycles/minute; SD in parenthesis
Method: as §1
The PBS equipment (Electronetics, Buffalo, N.Y.) used was essentially equivalent to that described in detail by G. Enhorning, J. Appld. Physiol. 43, 198-203, (1977). Recordings were made of the pressure gradient across the wall of a small air bubble, communicating with ambient air by means of a narrow chimney stack, but otherwise entirely surrounded by a 40 ul volume of the peptide/lipid admixture. The admixture concentration employed for these studies was 1 mg/ml total phospholipid (0.02 mg/ml total peptide) and the diluent was 0.15M NaCl.
Immediately prior to loading the sample chamber, the diluted samples were sonicated for 15 seconds to remove any gas nuclei.
The pressure drop across the air-water interface was measured during pulsation by a pressure transducer, and the corresponding surface tension was determined at minimum and maximum bubble size through the application of Young's law and the Laplace equation. Measurements were all made at 37° C. and the bubble pulsed at 20 cycles/minute to render respectively a maximum (1.1 mm) and a minimum (0.8 mm) bubble diameter. (This compression/expansion corresponds to a 50% change in the surface area of the air-water interface).

[4] = Dynamic surface tension versus compressed surface area, modified Wilhelmy Surface Balance (Langmuir Trough); details: peptide 0.5 mg/ml (~2% of solids) in DPPC:PG:PA 68:22:9; 675 ug phospholipid on 445 sq. cm trough; recorded during seven complete cycles
Method: as §1
The dynamic surface tension lowering properties of the peptide/lipid admixtures were studied using a modified Wilhelmy Surface Balance (Langmuir Trough). The instrument consists of an all Teflon trough and movable Teflon ribbon (dam) barrier system which completely contains and defines a variable surface area. Surface area was varied through the use of a constant rate reversible 3-phase motor to drive the Teflon barrier. A Cahn 2000 electrobalance (Cahn Instruments, Cerittos, Calif.) with a sandblasted 1 cm platinum plate and stainless steel hangdown wire was employed to determine the surface tension at the liquid-air interface. The entire apparatus was situated in a thermostated incubator set at 45° C. Surface area-surface tension measurements were made by adding 950 ml of 0.15M NaCl to the trough. Subphase temperature was controlled during the measurements at 36°-38° C.
For each experiment 27 ul of peptide/lipid admixture was applied in a random array of 13 droplets to the surface of the temperature controlled subphase and allowed to spread spontaneously for 3 minutes. (The 27 ul application corresponds to 675 ug of phospholipid). The trough surface area was then cycled from a maximum (445 sq. cm) to a minimum (178 sq. cm) surface area and back to maximum at a cycling rate of 3 cycles/min (compression ratio 2.5:1). The dynamic surface tension versus surface area was recorded for 7 complete compression-expansion cycles for each application.

B1: SP-B(1-78): complete SP-B surfactant protein having 78 amino acid residues, used as control (protein, UniProt P07988 201-279, looked up)
Pulmonary …: FPIPLPYCWLCRALIKRIQAMIPKGALAVAVAQVCRVVPLVAGGICQCLAERYSVILLDTLLGRMLPQLVCRLVLRCSM
modifications: Pulmonary surfactant-associated protein B
notes: complete SP-B surfactant protein having 78 amino acid residues, used as control
[1]; 1/2 dilution of equimolar stock with lipid mixture
  Mean Minimum Surface Tension, relative peptide concentration 1/2: 1.5 mN/m
[1]; 1/4 dilution of equimolar stock with lipid mixture
  Mean Minimum Surface Tension, relative peptide concentration 1/4: 4.5 mN/m
[1]; 1/8 dilution of equimolar stock with lipid mixture
  Mean Minimum Surface Tension, relative peptide concentration 1/8: 21.5 mN/m
[1]; equimolar to 0.5 mg/mL SP-B(53-78), 445 sq. cm trough
  Mean Minimum Surface Tension, relative peptide concentration Equimolar: 1.5 mN/m
[1]; peptide 2% of solids (0.5 mg/ml), 445 sq. cm trough
  Mean Minimum Surface Tension, relative peptide concentration 2%: 1.6 mN/m
[2]
  Adsorption (equilibrium adsorption surface tension): 37.5 dynes/cm
[3]
  Surface tension Maximum (maximum bubble size): 50.6 (1.7) dyne/cm
  Surface tension Minimum (minimum bubble size): 4.7 (0.3) dyne/cm
[4]
  Surface Tension Maximum: 44.0 dynes/cm
  Surface Tension Minimum: 0.3 dynes/cm
